From PMC13017698 come the findings set out here.

Assay in all cases: SEC
On the technique in general: In gel filtration, larger molecules generally elute earlier.

For assay [1], the target named is PahZ1Bfg, PahZ1 homolog from Brevifollis gellanilyticus (PahZ1-like domain fused to a CapA-like domain), residues 23-644 (Brevifollis gellanilyticus).
The target in assay [2] is PahZ1_(KT-1), poly(aspartic acid) hydrolase PahZ1 from Sphingomonas sp. KT-1 (Sphingomonas sp. KT-1).
For assay [3], the target named is PahZ1_(Spyx), PahZ1 homolog from Sphingopyxis sp. Root1497, residues 21-313 (Sphingopyxis sp. Root1497).

As to “PahZ1Bfg, PahZ1 homolog from Brevifollis gellanilyticus (PahZ1-like domain fused to a CapA-like domain), residues 23-644 (enzyme)”, in assay [1], the stoichiometry N came to 2.
In the case of “PahZ1_(KT-1), poly(aspartic acid) hydrolase PahZ1 from Sphingomonas sp. KT-1 (enzyme)”, the stoichiometry N in assay [2] came out at 2.
Consider “PahZ1_(Spyx), PahZ1 homolog from Sphingopyxis sp. Root1497, residues 21-313 (enzyme)”, for which, in assay [3], the stoichiometry N stood at 2.

The term stoichiometry N denotes a count of units in the complex or per binding partner.
